Experimental data reported in US20220324969A1 (MYTHIC THERAPEUTICS, published 2022).
Substitutions are numbered along the chain they refer to. In names and notes the source's numbering stands.

B1: MYT1604 (antibody, V domains shown)
VH: EVQLVQSGAEVKKPGSSVKVSCKASGYTITDSNIHWVRQAPGQSLEWIGYIYPYNGGTDYNQKFKNRATLTVDNPTNTAYMELSSLRSEDTDFYYCVNGNPWLAYWGQGTLVTVSS
VL: DIQLTQSPSTLSASVGDRVTITCRASESLDNYGIRFLHWFQQKPGKAPKLLMYAASNQGSGVPSRFSGSGSGTEFTLTISSLQPDDFATYYCQQTKEVPWSFGQGTKVEVK
notes: IgG; gemtuzumab VL variant #15 (T38H)
B2: MYT1605 (antibody, V domains shown)
VH: B1 VH
VL: B1 VL with H38T, A54H
notes: IgG; gemtuzumab VL variant #16 (A54H)
B3: MYT1606 (antibody, V domains shown)
VH: B1 VH
VL: B1 VL with H38T, A55H
notes: IgG; gemtuzumab VL variant #17 (A55H)
B4: MYT1607 (antibody, V domains shown)
VH: B1 VH
VL: B1 VL with H38T, S56H
notes: IgG; gemtuzumab VL variant #18 (S56H)
B5: MYT1608 (antibody, V domains shown)
VH: B1 VH
VL: B1 VL with H38T, N57H
notes: IgG; gemtuzumab VL variant #19 (N57H)
B6: MYT1609 (antibody, V domains shown)
VH: B1 VH
VL: B1 VL with H38T, Q58H
notes: IgG; gemtuzumab VL variant #20 (Q58H)
B7: MYT1610 (antibody, V domains shown)
VH: B1 VH
VL: B1 VL with H38T, G59H
notes: IgG; gemtuzumab VL variant #21 (G59H)
B8: MYT1611 (antibody, V domains shown)
VH: B1 VH
VL: B1 VL with H38T, S60H
notes: IgG; gemtuzumab VL variant #22 (S60H)
B9: MYT1612 (antibody, V domains shown)
VH: B1 VH
VL: B1 VL with H38T, Q93H
notes: IgG; gemtuzumab VL variant #23 (Q93H)
B10: MYT1613 (antibody, V domains shown)
VH: B1 VH
VL: B1 VL with H38T, Q94H
notes: IgG; gemtuzumab VL variant #24 (Q94H)
B11: MYT1614 (antibody, V domains shown)
VH: B1 VH
VL: B1 VL with H38T, T95H
notes: IgG; gemtuzumab VL variant #25 (T95H)
B12: MYT1615 (antibody, V domains shown)
VH: B1 VH
VL: B1 VL with H38T, K96H
notes: IgG; gemtuzumab VL variant #26 (K96H)
B13: MYT1616 (antibody, V domains shown)
VH: B1 VH
VL: B1 VL with H38T, E97H
notes: IgG; gemtuzumab VL variant #27 (E97H)
B14: MYT1617 (antibody, V domains shown)
VH: B1 VH
VL: B1 VL with H38T, V98H
notes: IgG; gemtuzumab VL variant #28 (V98H)
B15: MYT1619 (antibody, V domains shown)
VH: B1 VH
VL: B1 VL with H38T, W100H
notes: IgG; gemtuzumab VL variant #30 (W100H)
B16: MYT1620 (antibody, V domains shown)
VH: B1 VH
VL: B1 VL with H38T, S101H
notes: IgG; gemtuzumab VL variant #31 (S101H)
B17: MYT1213 (antibody, V domains shown)
VH: QVQLQQPGAEVVKPGASVKMSCKASHYTFTSYYIHWIKQTPGQGLEWVGVIYPGNDDISYNQKFQGKATLTADKSSTTAYMQLSSLTSEDSAVYYCAREVRLRYFDVWGQGTTVTVSS
VL: EIVLTQSPGSLAVSPGERVTMSCKSSQSVFFSSSQKNYLAWYQQIPGQSPRLLIYWASTRESGVPDRFTGSGSGTDFTLTISSVQPEDLAIYYCHQYLSSRTFGQGTKLEIK
notes: IgG; IMGN779 VH variant #1 (G26H)
B18: MYT1214 (antibody, V domains shown)
VH: B17 VH with H26G, Y27H
VL: B17 VL
notes: IgG; IMGN779 VH variant #2 (Y27H)
B19: MYT1215 (antibody, V domains shown)
VH: B17 VH with H26G, T28H
VL: B17 VL
notes: IgG; IMGN779 VH variant #3 (T28H)
B20: MYT1216 (antibody, V domains shown)
VH: B17 VH with H26G, F29H
VL: B17 VL
notes: IgG; IMGN779 VH variant #4 (F29H)
B21: MYT1217 (antibody, V domains shown)
VH: B17 VH with H26G, T30H
VL: B17 VL
notes: IgG; IMGN779 VH variant #5 (T30H)
B22: MYT1218 (antibody, V domains shown)
VH: B17 VH with H26G, S31H
VL: B17 VL
notes: IgG; IMGN779 VH variant #6 (S31H)
B23: MYT1219 (antibody, V domains shown)
VH: B17 VH with H26G, Y32H
VL: B17 VL
notes: IgG; IMGN779 VH variant #7 (Y32H)
B24: MYT1220 (antibody, V domains shown)
VH: B17 VH with H26G, Y33H
VL: B17 VL
notes: IgG; IMGN779 VH variant #8 (Y33H)
B25: MYT1221 (antibody, V domains shown)
VH: B17 VH with H26G, I34H
VL: B17 VL
notes: IgG; IMGN779 VH variant #9 (I34H)
B26: MYT1222 (antibody, V domains shown)
VH: B17 VH with H26G, H35A
VL: B17 VL
notes: IgG; IMGN779 VH variant #10 (H35A)
B27: MYT1223 (antibody, V domains shown)
VH: B17 VH with H26G, V50H
VL: B17 VL
notes: IgG; IMGN779 VH variant #11 (V50H)
B28: MYT1224 (antibody, V domains shown)
VH: B17 VH with H26G, I51H
VL: B17 VL
notes: IgG; IMGN779 VH variant #12 (I51H)
B29: MYT1225 (antibody, V domains shown)
VH: B17 VH with H26G, Y52H
VL: B17 VL
notes: IgG; IMGN779 VH variant #13 (Y52H)
B30: MYT1226 (antibody, V domains shown)
VH: B17 VH with H26G, P53H
VL: B17 VL
notes: IgG; IMGN779 VH variant #14 (P53H)
B31: MYT1227 (antibody, V domains shown)
VH: B17 VH with H26G, G54H
VL: B17 VL
notes: IgG; IMGN779 VH variant #15 (G54H)
B32: MYT1228 (antibody, V domains shown)
VH: B17 VH with H26G, N55H
VL: B17 VL
notes: IgG; IMGN779 VH variant #16 (N55H)
B33: MYT1229 (antibody, V domains shown)
VH: B17 VH with H26G, D56H
VL: B17 VL
notes: IgG; IMGN779 VH variant #17 (D56H)
B34: MYT1230 (antibody, V domains shown)
VH: B17 VH with H26G, D57H
VL: B17 VL
notes: IgG; IMGN779 VH variant #18 (D57H)
B35: MYT1231 (antibody, V domains shown)
VH: B17 VH with H26G, I58H
VL: B17 VL
notes: IgG; IMGN779 VH variant #19 (I58H)
B36: MYT1232 (antibody, V domains shown)
VH: B17 VH with H26G, S59H
VL: B17 VL
notes: IgG; IMGN779 VH variant #20 (S59H)
B37: MYT1233 (antibody, V domains shown)
VH: B17 VH with H26G, Y60H
VL: B17 VL
notes: IgG; IMGN779 VH variant #21 (Y60H)
B38: MYT1234 (antibody, V domains shown)
VH: B17 VH with H26G, N61H
VL: B17 VL
notes: IgG; IMGN779 VH variant #22 (N61H)
B39: MYT1235 (antibody, V domains shown)
VH: B17 VH with H26G, Q62H
VL: B17 VL
notes: IgG; IMGN779 VH variant #23 (Q62H)
B40: MYT1236 (antibody, V domains shown)
VH: B17 VH with H26G, K63H
VL: B17 VL
notes: IgG; IMGN779 VH variant #24 (K63H)
B41: MYT1237 (antibody, V domains shown)
VH: B17 VH with H26G, F64H
VL: B17 VL
notes: IgG; IMGN779 VH variant #25 (F64H)
B42: MYT1238 (antibody, V domains shown)
VH: B17 VH with H26G, Q65H
VL: B17 VL
notes: IgG; IMGN779 VH variant #26 (Q65H)
B43: MYT1239 (antibody, V domains shown)
VH: B17 VH with H26G, G66H
VL: B17 VL
notes: IgG; IMGN779 VH variant #27 (G66H)
B44: MYT1241 (antibody, V domains shown)
VH: B17 VH with H26G, R98H
VL: B17 VL
notes: IgG; IMGN779 VH variant #29 (R98H)
B45: MYT1243 (antibody, V domains shown)
VH: B17 VH with H26G, V100H
VL: B17 VL
notes: IgG; IMGN779 VH variant #31 (V100H)

These binders were tested against CD33 (Sino Biological, Cat #12238-H08H) (UniProt P20138 18-259) (assay: BLI, IgG captured on anti-human Fc sensor, 50 nM CD33, pH 7.4 vs pH 5.4).
Chain of CD33 (Sino Biological, Cat #12238-H08H) (P20138 18-259 limits assumed): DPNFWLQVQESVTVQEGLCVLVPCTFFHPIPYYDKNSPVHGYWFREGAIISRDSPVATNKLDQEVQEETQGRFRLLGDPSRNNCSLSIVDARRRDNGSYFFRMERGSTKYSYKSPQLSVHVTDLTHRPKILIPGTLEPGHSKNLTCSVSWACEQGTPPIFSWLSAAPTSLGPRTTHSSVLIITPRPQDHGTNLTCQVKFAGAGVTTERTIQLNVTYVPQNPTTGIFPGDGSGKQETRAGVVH

Binding result, binds:
B1
B2
B3
B4
B5
B6
B7
B8
B9
B10
B11
B12
B13
B14
B15
B16
B17
B18
B19
B20
B21
B22
B23
B24
B25
B26
B27
B28
B29
B30
B31
B32
B33
B34
B35
B36
B37
B38
B39
B40
B41
B42
B43
B44
B45
